Values joined by “and” are separate entries in the source; they are usually repeats but may differ in a detail not shown here. Identical values can stand only once.
How the values were obtained:
recombinant human IL-13 [1] = target: T1, recombinant human IL-13 (human, UniProt P35225 35-146, limits assumed); experiment: cell-based or functional assay
human serum albumin [2] = target: T2, human serum albumin (human, UniProt P02768 25-609); experiment: HSA binding activity, pH 7.4; method not described
T2 construct: also called HSA

human serum albumin [3] = target: T2, human serum albumin; experiment: HSA binding activity, pH 5.5; method not described
recombinant human IL-13 [4] = target: T1, recombinant human IL-13; experiment: cell-based or functional assay; remark: listed apart in the source
recombinant human IL-13 [5] = target: T1, recombinant human IL-13; experiment: cell-based or functional assay; remark: listed apart in the source

T1 sequence (P35225 35-146 limits assumed): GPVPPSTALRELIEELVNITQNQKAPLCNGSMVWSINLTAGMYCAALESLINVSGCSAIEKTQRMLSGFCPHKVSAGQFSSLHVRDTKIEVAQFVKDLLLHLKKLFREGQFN

B1: MY9217 (bispecific antibody)
chain: EVQLLESGGGLVQPGGSLRLSCAASGFTFSDYTMTWVRQAPGKGLEWVSTVNPDGDSTFYRDSVKGRFTISRDNAKNTLYLQLSSLKTEDTAMYYCTKASLITWPQSPRGQGTLVTVSSGGGGSGGGGSGGGGSGGGGSEVQLQESGGGLVEPGGSLRLSCVASGFTFQHYAMSWVRQAPGKGLEWVSSISMVGGGTSYADSVKGRFTMSRDNAKNTLYLQLNSLKSEDTAMYYCVRGWHPDVPRPLGQGTLVTVSSGGGGSGGGGSGGGGSGGGGSEVQLLESGGGLVQPGESLRLSCEVSGHTHTNYCMGWFRQAPGKGLEGVAAIDTDGSTTYADSVKGRFTISKDNAKNTLYLQMNSLKPEDTAMYYCMAEDFRDEYAPEPRLSSGGYCSIGYGMDYWGKGTLVTVSSA
notes: Trivalent long-acting nanobody: two anti-IL-13 VHH and one anti-HSA VHH in one chain; also called MY9286-GS20-HSA HuNb3-11-GS20-MY9293
Recombinant human IL-13 [1]
  IL-13 functional activity IC50: 0.0029 µg/mL
Human serum albumin [2]
  EC50: 0.0648 µg/mL
Human serum albumin [3]
  EC50: 0.0953 µg/mL

B2: MY9286 (VHH)
VHH: EVQLLESGGGLVQPGGSLRLSCAASGFTFSDYTMTWVRQAPGKGLEWVSTVNPDGDSTFYRDSVKGRFTISRDNAKNTLYLQLSSLKTEDTAMYYCTKASLITWPQSPRGQGTLVTVSS
Recombinant human IL-13 [4]
  Humanized nanobody IC50 (µg/mL), HEK-Blue IL-4/IL-13 cells: 3.42 µg/mL

B3: MY9464 (VHH)
chain: EVQLLESGGGLVQPGESLRLSCEVSGHTHTNYCMGWFRQAPGKGLEGVAAIDTDGSTTYADSVKGRFTISKDNAKNTLYLQMNSLKPEDTAMYYCMAEDFRDEYAPEPRLSSGGYCSIGYGMDYWGKGTLVTVSSGGGGSGGGGSGGGGSGGGGSEVQLLESGGGLVQPGGSLRLSCAASGFTFSDYTMTWVRQAPGKGLEWVSTVNPDGDSTFYRDSVKGRFTISRDNAKNTLYLQLSSLKTEDTAMYYCTKASLITWPQSPRGQGTLVTVSS
Recombinant human IL-13 [5]
  Activity IC50 (µg/mL), HEK-Blue IL-4/IL-13 cells: 0.0029 µg/mL

B4: Lebrikizumab (antibody, V domains shown)
VH: QVTLRESGPALVKPTQTLTLTCTVSGFSLSAYSVNWIRQPPGKALEWLAMIWGDGKIVYNSALKSRLTISKDTSKNQVVLTMTNMDPVDTATYYCAGDGYYPYAMDNWGQGSLVTVSS
VL: DIVMTQSPDSLSVSLGERATINCRASKSVDSYGNSFMHWYQQKPGQPPKLLIYLASNLESGVPDRFSGSGSGTDFTLTISSLQAEDVAVYYCQQNNEDPRTFGGGTKVEIKR
Recombinant human IL-13 [1]
  IL-13 functional activity IC50: 0.0076 µg/mL
Recombinant human IL-13 [5]
  Control antibody 2 IC50 (µg/mL), HEK-Blue IL-4/IL-13 cells: 0.0043 µg/mL and 0.0041 µg/mL and 0.004 µg/mL

B5: HuNb3-11 (VHH)
VHH: EVQLQESGGGLVEPGGSLRLSCVASGFTFQHYAMSWVRQAPGKGLEWVSSISMVGGGTSYADSVKGRFTMSRDNAKNTLYLQLNSLKSEDTAMYYCVRGWHPDVPRPLGQGTLVTVSS
notes: also called HSA HuNb3-11; Control antibody 3
Human serum albumin [2]
  EC50: 0.11 µg/mL
Human serum albumin [3]
  EC50: 0.164 µg/mL

B6: MY9470 (VHH)
chain: EVQLLESGGGLVQPGESLRLSCEVSGHTHTNYCMGWFRQAPGKGLEGVAAIDTDGSTTYADSVKGRFTISKDNAKNTLYLQMNSLKPEDTAMYYCMAEDFRDEYAPEPRLSSGGYCSIGYGMDYWGKGTLVTVSSGGGGSGGGGSGGGGSGGGGSEVQLLESGGGLVQPGESLRLSCEVSGHTHTNYCMGWFRQAPGKGLEGVAAIDTDGSTTYADSVKGRFTISKDNAKNTLYLQMNSLKPEDTAMYYCMAEDFRDEYAPEPRLSSGGYCSIGYGMDYWGKGTLVTVSS
Recombinant human IL-13 [5]
  Activity IC50 (µg/mL), HEK-Blue IL-4/IL-13 cells: 1.75 µg/mL

B7: MY9219 (bispecific antibody)
chain: EVQLQESGGGLVEPGGSLRLSCVASGFTFQHYAMSWVRQAPGKGLEWVSSISMVGGGTSYADSVKGRFTMSRDNAKNTLYLQLNSLKSEDTAMYYCVRGWHPDVPRPLGQGTLVTVSSGGGGSGGGGSGGGGSGGGGSEVQLLESGGGLVQPGGSLRLSCAASGFTFSDYTMTWVRQAPGKGLEWVSTVNPDGDSTFYRDSVKGRFTISRDNAKNTLYLQLSSLKTEDTAMYYCTKASLITWPQSPRGQGTLVTVSSGGGGSGGGGSGGGGSGGGGSEVQLLESGGGLVQPGESLRLSCEVSGHTHTNYCMGWFRQAPGKGLEGVAAIDTDGSTTYADSVKGRFTISKDNAKNTLYLQMNSLKPEDTAMYYCMAEDFRDEYAPEPRLSSGGYCSIGYGMDYWGKGTLVTVSSA
notes: Trivalent long-acting nanobody: two anti-IL-13 VHH and one anti-HSA VHH in one chain; also called HSA HuNb3-11-MY9286-GS20-MY9293-GS20
Recombinant human IL-13 [1]
  IL-13 functional activity IC50: 0.0024 µg/mL
Human serum albumin [2]
  EC50: 0.0467 µg/mL
Human serum albumin [3]
  EC50: 0.0648 µg/mL

B8: MY9293 (VHH)
VHH: EVQLLESGGGLVQPGESLRLSCEVSGHTHTNYCMGWFRQAPGKGLEGVAAIDTDGSTTYADSVKGRFTISKDNAKNTLYLQMNSLKPEDTAMYYCMAEDFRDEYAPEPRLSSGGYCSIGYGMDYWGKGTLVTVSS
Recombinant human IL-13 [4]
  Humanized nanobody IC50 (µg/mL), HEK-Blue IL-4/IL-13 cells: 1.05 µg/mL

B9: MY9466 (VHH)
VHH: EVQLLESGGGLVQPGESLRLSCEVSGHTHTNYCMGWFRQAPGKGLEGVAAIDTDGSTTYADSVKGRFTISKDNAKNTLYLQMNSLKPEDTAMYYCMAEDFRDEYAPEPRLSSGGYCSIGYGMDYWGKGTLVTVSS
Recombinant human IL-13 [5]
  Activity IC50 (µg/mL), HEK-Blue IL-4/IL-13 cells: 0.0038 µg/mL

B10: MY9431 (VHH)
chain: EVQLLESGGGLVQPGGSLRLSCAASGFTFSDYTMTWVRQAPGKGLEWVSTVNPDGDSTFYRDSVKGRFTISRDNAKNTLYLQLSSLKTEDTAMYYCTKASLITWPQSPRGQGTLVTVSSGGGGSGGGGSGGGGSGGGGSEVQLLESGGGLVQPGESLRLSCEVSGHTHTNYCMGWFRQAPGKGLEGVAAIDTDGSTTYADSVKGRFTISKDNAKNTLYLQMNSLKPEDTAMYYCMAEDFRDEYAPEPRLSSGGYCSIGYGMDYWGKGTLVTVSS
Recombinant human IL-13 [5]
  Activity IC50 (µg/mL), HEK-Blue IL-4/IL-13 cells: 0.0014 µg/mL
